Series [1] concerns the target T1, GST-HuR (human? (species ; plasmid …, UniProt Q15717 1-326). As to the kind of experiment: EMSA; no PARP1; Kd value only in figure; 3 mM MgCl2, 40 mM KCl, 5% glycerol, 2 mM DTT, 2 ug tRNA, 20 uM (so in the source) 5'-biotin RNA, 40 min at room temperature; 6% native acrylamide gel; protein 100-160. The note with it: protein: recombinant; tags: GST; label: 5' biotin.

The target of series [2] is T1, GST-HuR. As to the kind of experiment: EMSA; with PARP1 + PJ34; enhancement abolished; 3 mM MgCl2, 40 mM KCl, 5% glycerol, 2 mM DTT, 2 ug tRNA, 20 uM (so in the source) 5'-biotin RNA, 40 min at room temperature; 6% native acrylamide gel; protein 100-160. The note with it: protein: recombinant; tags: GST; label: 5' biotin. In general terms: Mobility shift assays separate free from complexed probe on a gel.

Series [3] addresses T1, GST-HuR. As to the kind of experiment: EMSA; no PARP1; several shifted bands; 3 mM MgCl2, 40 mM KCl, 5% glycerol, 2 mM DTT, 2 ug tRNA, 20 uM (so in the source) 5'-biotin RNA, 40 min at room temperature; 6% native acrylamide gel; protein 100-160. The following applies: protein: recombinant; tags: GST; label: 5' biotin.
In series [4] the target is PARP1 (UniProt P09874 2-1014). As to the kind of experiment: EMSA; PARylation buffer, titrated sonicated DNA; no shifted bands; 3 mM MgCl2, 40 mM KCl, 5% glycerol, 2 mM DTT, 2 ug tRNA, 20 uM (so in the source) 5'-biotin RNA, 40 min at room temperature; 6% native acrylamide gel; protein 100-160. The note with it: protein: recombinant; label: 5' biotin.
Sequence of PARP1 (P09874 2-1014): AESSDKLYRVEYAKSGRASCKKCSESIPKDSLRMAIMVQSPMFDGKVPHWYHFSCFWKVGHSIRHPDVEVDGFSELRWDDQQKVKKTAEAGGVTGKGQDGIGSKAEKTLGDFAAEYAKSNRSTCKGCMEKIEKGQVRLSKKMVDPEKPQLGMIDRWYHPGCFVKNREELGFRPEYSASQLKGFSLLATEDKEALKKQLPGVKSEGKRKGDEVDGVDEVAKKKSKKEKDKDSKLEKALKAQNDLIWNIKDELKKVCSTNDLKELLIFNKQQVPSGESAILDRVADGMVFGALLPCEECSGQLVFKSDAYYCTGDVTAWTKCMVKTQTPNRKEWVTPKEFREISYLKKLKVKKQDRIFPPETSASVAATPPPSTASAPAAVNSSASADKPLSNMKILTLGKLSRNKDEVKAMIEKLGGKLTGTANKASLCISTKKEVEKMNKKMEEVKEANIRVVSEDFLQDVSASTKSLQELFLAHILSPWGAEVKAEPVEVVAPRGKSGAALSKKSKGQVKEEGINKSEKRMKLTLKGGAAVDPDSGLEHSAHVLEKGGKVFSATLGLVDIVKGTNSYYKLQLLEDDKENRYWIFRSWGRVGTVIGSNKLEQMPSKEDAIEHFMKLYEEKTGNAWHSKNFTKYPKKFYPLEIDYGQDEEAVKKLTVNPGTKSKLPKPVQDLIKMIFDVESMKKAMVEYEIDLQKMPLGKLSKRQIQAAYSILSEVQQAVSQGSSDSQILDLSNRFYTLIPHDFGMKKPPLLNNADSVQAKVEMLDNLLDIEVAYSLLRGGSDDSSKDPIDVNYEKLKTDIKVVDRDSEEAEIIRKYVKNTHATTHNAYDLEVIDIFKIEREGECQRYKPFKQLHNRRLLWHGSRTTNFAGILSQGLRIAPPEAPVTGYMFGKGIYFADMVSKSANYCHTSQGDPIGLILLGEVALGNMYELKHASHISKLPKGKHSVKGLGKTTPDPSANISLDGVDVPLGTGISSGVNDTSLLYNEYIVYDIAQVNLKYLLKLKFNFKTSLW
Series [5] addresses T1, GST-HuR. Nature of the series: EMSA; no PARP1; 3 mM MgCl2, 40 mM KCl, 5% glycerol, 2 mM DTT, 2 ug tRNA, 20 uM (so in the source) 5'-biotin RNA, 40 min at room temperature; 6% native acrylamide gel; protein 100-160. The following applies: protein: recombinant; tags: GST; label: 5' biotin.

T1 sequence (Q15717 whole entry): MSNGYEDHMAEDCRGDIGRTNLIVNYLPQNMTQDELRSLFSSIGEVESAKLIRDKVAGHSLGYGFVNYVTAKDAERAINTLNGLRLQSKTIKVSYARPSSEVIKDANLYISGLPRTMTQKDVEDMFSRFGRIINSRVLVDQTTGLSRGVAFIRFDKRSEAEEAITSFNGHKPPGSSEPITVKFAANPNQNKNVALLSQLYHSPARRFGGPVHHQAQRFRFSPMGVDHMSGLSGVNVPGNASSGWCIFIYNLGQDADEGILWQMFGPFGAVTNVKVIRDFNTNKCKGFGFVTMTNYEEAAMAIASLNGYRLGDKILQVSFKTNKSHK

In the case of AGUUCACUUAUUUAUUUAUCUAUGU (ssRNA) [Cxcl2-ARE1 RNA oligo], in series [1], the binding result is recorded as “binds”.

With CUAUGUAUUUAUUUAUUUAUUAAUU (ssRNA) [Cxcl2-ARE2 RNA oligo], the binding result in series [2] is given as “binds”.

As for AUUUAUUUAUUUAUUUAUUUAUUUA (ssRNA) [AU-rich RNA oligo (tandem ARE)], the binding result in series [3] was “binds”; in series [4], “no binding”.

As for GUGGACACAUUUAUUUAUUCAUGUA (ssRNA) [Cxcl2-ARE3 RNA oligo], the binding result in series [5] is on record as “no binding”.

These data come from article PMC5344980, “PARP1 promotes gene expression at the post-transcriptional level by modulating the RNA-binding protein HuR”.
